# Experimental data taken from the DeepSol protein solubility set.
# Assay: soluble on expression in E. coli; label from the status in PepcDB or PDB records
row,Sequence,soluble on expression in E. coli
1,MGSDKIHHHHHHMKTKHILFGIFISSAVTSCNSIKGSGNVVTSIRPVQEFSGIISSGSFNMYLTQSAVQEVKIIADDNVLQYIETNVRDGILTVTFKDKVHIKNSTRLDIYVSGPVIEKINLEGSGNIQTTNRLHSNNLVLVLNGSGKMVAEDACETAIVQLNGSGNITLTGKAKNQTASVSGSGNVNASGFTTENTTASLSGSGSIGLYATESLHASLSGSGSIRYSGNPASVKKEVSGSGMVESR,not soluble
2,MRAERRKQLFRLLGDLPDRRPISVETLRIEEREENIVETLLLDLNGHEKAPAYFVKPKKTEGPCPAVLFQHSHGGQYDRGKSELIEGADYLKTPSFSDELTSLGYGVLAIDHWGFGDRRGKAESEIFKEMLLTGKVMWGMMIYDSLSALDYMQSRSDVQPDRIGTIGMSMGGLMAWWTAALDDRIKVCVDLCSQVDHHVLIKTQNLDRHGFYYYVPSLAKHFSASEIQSLIAPRPHLSLVGVHDRLTPAEGVDKIEKELTAVYAGQGAADCYRVVRSASGHFETAVIRHEAVRFLQKWLLEHHHHHH,not soluble
3,MVDREWVLKIAKLARLELKEEEIEVFQKQLSDILDFIDQLKELDTENVEPYIQEFEETPMREDEPHPSLDREKALMNAPERKDGFFVVPRVVEV,soluble
4,MHVLTLDLAPVTPKDAPLLHRVFHLSPSYFALIGMELPTLEDVVRDLQTLEVDPRRRAFLLFLGQEPVGYLDAKLGYPEAEDATLSLLLIREDHQGRGLGRQALERFAAGLDGVRRLYAVVYGHNPKAKAFFQAQGFRYVK,not soluble
5,MDVRQSIHSAHAKTLDTQGLRNEFLVEKVFVADEYTMVYSHIDRIIVGGIMPITKTVSVGGEVGKQLGVSYFLERRELGVINIGGAGTITVDGQCYEIGHRDALYVGKGAKEVVFASIDTGTPAKFYYNCAPAHTTYPTKKVTPDEVSPVTLGDNLTSNRRTINKYFVPDVLETCQLSMGLTELAPGNLWNTMPCHTHERRMEVYFYFNMDDDACVFHMMGQPQETRHIVMHNEQAVISPSWSIHSGVGTKAYTFIWGMVGENQVFDDMDHVAVKDLR,not soluble
6,AMNLIFLGTSAGVPTRTRNVTAILLNLQHPTQSGLWLFDCGEGTQHQLLHTAFNPGKLDKIFISHLHGDHLFGLPGLLCSRSMSGIIQPLTIYGPQGIREFVETALRISGSWTDYPLEIVEIGAGEILDDGLRKVTAYPLEHPLECYGYRIEEHDAPGALNAQALKAAGVPPGPLFQELKAGKTITLEDGRQINGADYLAAPVPGKALAIFGDTGPCDAALDLAKGVDVMVHEATLDITMEAKANSRGHSSTRQAATLAREAGVGKLIITHVSSRYDDKGCQHLLRECRSIFPATELANDFTVFNV,soluble
7,MQNAILLVSCPDRKGLVKEISSFIADNGGNIVSFDQHIDEQTKTFLARVEWSLEDFKIPREKIENEFKKVAQKFSMNFQISFSDYVKKVAIFVSKQEHCFYDLMHRFYSGELKGEVKLVISNHEKARKTAEFFGVPFYHIPKTKENKLEAEKRELELLKEYGVELVVLARYMQILSPKFVKEYENKIINIHHSFLPAFPGAKPYERAFGKGVKIIGATAHYVTEELDEGPIIEQDVVRVSHKDSLEDFIRKGKDIEKVVLARAVKWHLEDKILVYNGKTVVFE,soluble
8,MGSDKIHHHHHHMGMILNGYLEVINHLQQLPLALILIFNLKIMKQIIYVFLLTVLSSCDSYLSKVPSPSTSAPINNVEQLVAIYDNATAFINETNPFACYSNDDADLTAELYKADPSAFAISSTVFYNILHTAGIASQASDGLWNGEYSNIFKANTIINNVDKVTGDESEKIKLKCNAHFLRAYSYFVLAQYYCLPYCEANKNALGLPKRLNTDFEESIARVSLDEIYQLILDDLEIAAVTPDKSVNPNFPWRICQATVNALLSRVYLTMGNYKEAQATAEKALEGAPELLDFNELGYAPVESYPEMEGLPAQDVYNCETHKWTTIKYLYWKEFLFPRFTYARSQWIIPSDDLVSLYDQQNDRRFKLFFVEHGNRRMGVPYEAYRYNQFYDGRYIISGLTTAEMLLNKAEAQIRQGMWQEGLKTLDVLREKRYEAGTYISLSAGNQSEALSIVLAERRREMPFSMRIPDIKRYGVNEILEDDVTVVKNFFEISMSEVFIDKPKTYTIPSNSLLWAMPINDVEIGSSNGAIQQNRYE,not soluble
9,METEIPVNEKETSFRRRVYTTIETLIDIENTDQLQEHLPHLHCLGWDEVVEERYVNKQCGFPSCQKAPPKITRNQMFEIDRKEGKIFEFRKQRAKFCSEMCYQKSSFVRKQLDEHPLWITGLTEARTQKVYEVPDESFVSPIAEKSEPVDSQFKKEPSIWLVTDSIIAKVQDMKLSEEAEEPKSLDPEDQDIEPFKLTDDDKDFIKSIKEFRNSNFGPPSTSKLLKTAPKPVLSAKDRKKEDEVLAKLRAKYGNKNALQKKPPILIEAQEIHSKLKTMEKAKEAWLVDLIKSWFTPETRKLVREGARPTGGAAEQILMDFLSGKKVDAEKLVNLPNLDKYNVKEKRLNIFLHSIRNHWMDLEARLHLTPTRRDILSRVASTFQLDSENITGWTKREINSIVIALFIVICLVDVELGDDYFKKDNASPELTAISNELCGLDSFQITGLHAAIKSQC,not soluble
10,EETIPLQTLRCYNDYTSHITCRWADTQDAQRLVNVTLIRRVNEDLLEPVSCDLSDDMPWSACPHPRCVPRRCVIPCQSFVVTDVDYFSFQPDRPLGTRLTVTLTQHVQPPEPRDLQISTDQDHFLLTWSVALGSPQSHWLSPGDLEFEVVYKRLQDSWEDAAILLSNTSQATLGPEHLMPSSTYVARVRTRLAPGSRLSGRPSKWSPEVCWDSQPGDEAQPQNLECFFDGAAVLSCSWEVRKEVASSVSFGLFYKPSPDAGEEECSPVLREGLGSLHTRHHCQIPVPDPATHGQYIVSVQPRRAEKHIKSSVNIQMAPPSLQVTKDGDSYSLRWETMKMRYEHIDHTFEIQYRKDTATWKDSKTETLQNAHSMALPALEPSTRYWARVRVRTSRTGYNGIWSEWSEARSWDTES,soluble
11,MSLRAAARELSVGHTPTIGLVVADLANPFFAQLADRVVWEARSHGVQVMVMTTQEDPHLEADSLDTLLDRSVGGVIATPTGANIEKWARLQSLGVNVVFVDRTIPELEDVDLVSIENVDSARRATEHMLGLGHRRIGLITGPVSTSTGRSRIEGYKAAHNNFSISVDPQLIRDVAFRGDGGGDAVGSLLALPDRPTALIVANTAQVLSSVRRLVQIGVRIPDDLSVIVFDDNPWTELTNPPLSVIRQPIDMLAVHSLELVLGRMQGRLPAAPRTIEVKADFVPRSSCSPLALSEGHHHHHH,soluble
12,MGLPKSAYKKLLIDCPTRVINKNCAQRVKDVSPLITNFEKWSDKRKKLYFKDEEEMVGQFHLENFNLKNNLYGRLLASPMRAEKISKLKSCRELLIPLKVVPSTGKDQHADKDKLKLVPTLDYSKSYKSSYVLNSASIVQDNLAAATSWFPISVLQTSTPKSLEVDSSTFITEYNANLHAFIKARLSVIPNVGPSSINRVLLICDKRKTPPIEIQVVSHGKGLPITQSVFNLGYLHEPTLEAIVSKDAVTNGIYLDADNDKDLIKHLYSTLLFHSVN,not soluble
13,MGSDKIHHHHHHMKLNHRQLEAFRAMIETGSVTEASKRIGVTQPAASRLISDLEYAIGYALFLREKKRLTPTPEAMALFEEVDRSYIGLGLIGDAARDIGANRRGALRIASLPAMALSFLPKVISKFCEDKPDISVDMQIHSSQRVIQCVASQQFDLGFAEIDSLHPAVKSQAFFESPMVAILPKHHPLCRKATLTPQDFSNENFIALGSNYTMRKRIDALFLANNITRKIQIETQLSMAVANLVASGAGVSIIEALTASSFRGLNLVEARPFLPEITYTYRVLSPAHRPISLLTASFINATRDALMKFDVSGHAL,not soluble
14,MGSSHHHHHHSSGRENLYFQGMTLKAGIVGIGMIGSDHLRRLANTVSGVEVVAVCDIVAGRAQAALDKYAIEAKDYNDYHDLINDKDVEVVIITASNEAHADVAVAALNANKYVFCEKPLAVTAADCQRVIEAEQKNGKRMVQIGFMRRYDKGYVQLKNIIDSGEIGQPLMVHGRHYNASTVPEYKTPQAIYETLIHEIDVMHWLLNEDYKTVKVYFPRQSSLVTTLRDPQLVVMETTSGINIVVEVFVNCQYGYDIHCDVTGEKGMAELPTVASAAVRKAAKYSTDILVDWKQRFIDAYDIEFQDFFDRLNAGLPPAGPTSWDGYLAAVTADACVKSQETGNTEIVELPSKPDFYK,soluble
